Source: patent US20180104312A1 (Eli Lilly, published 2018)
Substitutions are numbered along the chain they refer to. Like-named read-outs stand apart in the source and are kept apart here. No end group written: not given here.

Columns and labels:
[1] = biological target: T1, human glucose-dependent insulinotropic polypeptide receptor (human) (UniProt P48546); test: cell-based or functional assay
T1 sequence (looked up): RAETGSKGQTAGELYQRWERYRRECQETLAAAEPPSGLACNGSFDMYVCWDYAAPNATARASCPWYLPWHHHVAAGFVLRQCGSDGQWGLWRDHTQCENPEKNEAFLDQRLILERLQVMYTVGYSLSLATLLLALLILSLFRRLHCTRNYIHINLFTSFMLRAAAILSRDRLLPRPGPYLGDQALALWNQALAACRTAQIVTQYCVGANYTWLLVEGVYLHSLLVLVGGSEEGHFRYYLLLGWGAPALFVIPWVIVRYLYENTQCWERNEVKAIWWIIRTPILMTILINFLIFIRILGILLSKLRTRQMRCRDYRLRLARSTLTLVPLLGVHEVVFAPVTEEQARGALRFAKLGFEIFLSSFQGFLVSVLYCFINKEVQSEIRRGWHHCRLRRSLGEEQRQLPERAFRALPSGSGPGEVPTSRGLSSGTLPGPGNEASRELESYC

[2] = biological target: T2, recombinant human glucagon receptor (human, UniProt P47871 26-477); test: cell-based or functional assay
T2 sequence (P47871 26-477): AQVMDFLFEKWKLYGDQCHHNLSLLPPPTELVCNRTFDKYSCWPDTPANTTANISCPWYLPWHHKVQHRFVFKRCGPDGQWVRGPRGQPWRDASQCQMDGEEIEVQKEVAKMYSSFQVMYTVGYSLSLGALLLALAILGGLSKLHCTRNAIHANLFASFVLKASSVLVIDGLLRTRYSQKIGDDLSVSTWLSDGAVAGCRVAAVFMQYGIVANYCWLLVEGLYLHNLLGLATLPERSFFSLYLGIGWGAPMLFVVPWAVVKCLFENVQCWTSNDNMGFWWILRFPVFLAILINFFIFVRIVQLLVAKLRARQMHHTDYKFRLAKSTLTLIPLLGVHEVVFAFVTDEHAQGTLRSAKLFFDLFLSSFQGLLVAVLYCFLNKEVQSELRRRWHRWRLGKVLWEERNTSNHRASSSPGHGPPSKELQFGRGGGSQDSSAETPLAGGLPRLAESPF

[3] = biological target: T3, human Glucagon-Like Peptide-1 receptor (human, UniProt P43220 24-463); test: cell-based or functional assay
Target sequence in this assay (P43220 24-463): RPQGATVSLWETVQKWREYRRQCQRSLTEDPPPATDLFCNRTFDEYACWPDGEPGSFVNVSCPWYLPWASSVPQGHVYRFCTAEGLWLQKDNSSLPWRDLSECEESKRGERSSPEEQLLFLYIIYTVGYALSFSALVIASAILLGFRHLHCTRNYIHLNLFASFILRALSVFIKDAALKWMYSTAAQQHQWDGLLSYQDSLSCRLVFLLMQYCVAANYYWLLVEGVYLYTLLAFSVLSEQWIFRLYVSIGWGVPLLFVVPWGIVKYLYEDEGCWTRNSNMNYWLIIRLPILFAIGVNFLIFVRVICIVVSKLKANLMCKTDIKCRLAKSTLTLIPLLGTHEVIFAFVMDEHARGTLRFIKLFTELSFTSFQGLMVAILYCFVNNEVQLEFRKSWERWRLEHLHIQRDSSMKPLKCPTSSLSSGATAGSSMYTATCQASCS

[4] = biological target: T2, recombinant human glucagon receptor; test: I-125-Gcg competition SPA, membranes of 293HEK cells expressing hGcg-R
Method: (§1) The specific activity is 2200 Ci/mmol. KD determination is performed by homologous competition or saturation binding analysis.
(§2) The receptor binding assay is carried out using a Scintillation Proximity Assay (SPA) format with wheat germ agglutinin (WGA) beads (Perkin Elmer). The binding buffer contains 25 mM 4-(2-hydroxyethyl)-1-piperazineethanesulfonic acid (HEPES), pH 7.4, 2.5 mM CaCl₂, 1 mM MgCl₂, 0.1% (w/v) bacitracin (Affymetrix), 0.003% (w/v) Polyoxyethylenesorbitan monolaurate (TWEEN®-20) and Roche Complete™ Protease Inhibitors without EDTA.

mouse glucagon receptor = biological target: T4, mouse glucagon receptor (mouse, UniProt Q61606 27-485); test: I-125-Gcg competition SPA, membranes of 293HEK cells expressing mGcg-R
T4 construct: whole, on cells; Used as membranes of a clonal 293HEK line; also called mGcg-R; mGcgR
T4 sequence (Q61606 27-485): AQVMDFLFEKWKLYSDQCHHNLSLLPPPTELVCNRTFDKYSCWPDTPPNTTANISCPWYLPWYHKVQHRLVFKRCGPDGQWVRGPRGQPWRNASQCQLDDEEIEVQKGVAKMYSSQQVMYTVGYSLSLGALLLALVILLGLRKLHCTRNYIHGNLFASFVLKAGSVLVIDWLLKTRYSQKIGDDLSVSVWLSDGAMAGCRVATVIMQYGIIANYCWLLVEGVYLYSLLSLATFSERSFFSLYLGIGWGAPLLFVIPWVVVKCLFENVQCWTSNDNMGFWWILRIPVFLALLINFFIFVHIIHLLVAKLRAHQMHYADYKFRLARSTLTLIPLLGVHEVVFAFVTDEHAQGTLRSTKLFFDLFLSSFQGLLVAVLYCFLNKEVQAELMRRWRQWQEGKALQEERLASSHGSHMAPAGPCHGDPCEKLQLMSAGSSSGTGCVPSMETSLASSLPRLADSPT
Method: as §1, §2

[5] = biological target: T5, human glucose-dependent insulinotropic polypeptide receptor (human, UniProt P48546 22-466); test: cell-based or functional assay
T5 sequence (looked up): T1 sequence (looked up)

[6] = biological target: T2, recombinant human glucagon receptor; test: cell-based or functional assay; remark: listed apart in the source
[7] = biological target: T3, human Glucagon-Like Peptide-1 receptor; test: cell-based or functional assay; remark: listed apart in the source
[8] = biological target: T5, human glucose-dependent insulinotropic …; test: cell-based or functional assay; remark: listed apart in the source
[9] = biological target: T2, recombinant human glucagon receptor; test: cell-based or functional assay; remark: listed apart in the source
[10] = biological target: T3, human Glucagon-Like Peptide-1 receptor; test: cell-based or functional assay; remark: listed apart in the source
[11] = biological target: T5, human glucose-dependent insulinotropic …; test: cell-based or functional assay; remark: listed apart in the source
[12] = biological target: T2, recombinant human glucagon receptor; test: cell-based or functional assay; remark: listed apart in the source
[13] = biological target: T3, human Glucagon-Like Peptide-1 receptor; test: cell-based or functional assay; remark: listed apart in the source
rat glucagon receptor = biological target: T6, rat glucagon receptor (rat, UniProt P30082 27-485); test: I-125-Gcg competition SPA, membranes of 293HEK cells expressing rGcg-R
T6 construct: whole, on cells; Used as membranes of transiently transfected 293HEK cells; also called rGcg-R; rat Gcg-R
T6 sequence (P30082 27-485): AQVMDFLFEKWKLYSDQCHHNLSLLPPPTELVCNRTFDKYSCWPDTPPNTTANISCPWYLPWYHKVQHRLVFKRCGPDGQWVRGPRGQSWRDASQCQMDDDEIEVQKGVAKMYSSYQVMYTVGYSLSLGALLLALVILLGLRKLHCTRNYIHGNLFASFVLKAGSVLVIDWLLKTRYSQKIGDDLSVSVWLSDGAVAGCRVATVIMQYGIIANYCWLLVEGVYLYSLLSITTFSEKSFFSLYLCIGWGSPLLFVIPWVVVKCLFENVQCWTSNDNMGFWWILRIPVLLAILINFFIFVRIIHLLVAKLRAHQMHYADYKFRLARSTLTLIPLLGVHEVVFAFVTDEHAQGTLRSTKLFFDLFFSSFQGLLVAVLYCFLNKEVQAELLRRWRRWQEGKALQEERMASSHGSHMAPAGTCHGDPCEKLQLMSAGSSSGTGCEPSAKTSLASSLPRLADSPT
Method: as §1, §2

dulaglutide (Fc fusion)
EC50, cAMP, GIP Receptor Assay; sample C6.5-4 C.-4 wk [1]: > 100 nM
EC50, cAMP, GIP Receptor Assay; sample C6.5-40 C.-4 wk [1]: > 100 nM
EC50, cAMP, GIP Receptor Assay; sample C6.5MT-4 C.-4 wk [1]: > 100 nM
EC50, cAMP, GIP Receptor Assay; sample C6.5MT-40 C.-4 wk [1]: > 100 nM
EC50, cAMP, Gcg Receptor Assay; sample C6.5-4 C.-4 wk [2]: 51.9 nM
EC50, cAMP, Gcg Receptor Assay; sample C6.5-40 C.-4 wk [2]: > 100 nM
EC50, cAMP, Gcg Receptor Assay; sample C6.5MT-4 C.-4 wk [2]: 54 nM
EC50, cAMP, Gcg Receptor Assay; sample C6.5MT-40 C.-4 wk [2]: > 100 nM
EC50, cAMP, GLP-1 Receptor Assay; sample C6.5-4 C.-4 wk [3]: 0.37 nM
EC50, cAMP, GLP-1 Receptor Assay; sample C6.5-40 C.-4 wk [3]: 0.31 nM
EC50, cAMP, GLP-1 Receptor Assay; sample C6.5MT-4 C.-4 wk [3]: 0.4 nM
EC50, cAMP, GLP-1 Receptor Assay; sample C6.5MT-40 C.-4 wk [3]: 0.29 nM

B1: Example 1 (peptide)
peptide: YXQGTFTSDYSKYLDXKKAXEFVEWLLETGPSSGAPPPS
modifications: Aib at positions 2 and 16; K20 epsilon-amino group conjugated with ([2-(2-Amino-ethoxy)-ethoxy]-acetyl)2-(γGlu)2-CO-(CH2)16-CO2H; C-terminal primary amide
Ki [4]: 2.04 nM
Ki (mouse glucagon receptor): 1.92 nM
EC50, cAMP, GIP Receptor Assay; sample C6.5-4 C.-4 wk [5]: > 100 nM
EC50, cAMP, GIP Receptor Assay; sample C6.5-40 C.-4 wk [5]: > 100 nM
EC50, cAMP, GIP Receptor Assay; sample C6.5MT-4 C.-4 wk [5]: > 100 nM
EC50, cAMP, GIP Receptor Assay; sample C6.5MT-40 C.-4 wk [5]: > 100 nM
EC50, cAMP, Gcg Receptor Assay; sample C6.5-4 C.-4 wk [6]: 0.0178 nM
EC50, cAMP, Gcg Receptor Assay; sample C6.5-40 C.-4 wk [6]: 0.0243 nM
EC50, cAMP, Gcg Receptor Assay; sample C6.5MT-4 C.-4 wk [6]: 0.0188 nM
EC50, cAMP, Gcg Receptor Assay; sample C6.5MT-40 C.-4 wk [6]: 0.0146 nM
EC50, cAMP, GLP-1 Receptor Assay; sample C6.5-4 C.-4 wk [7]: 41.6 nM
EC50, cAMP, GLP-1 Receptor Assay; sample C6.5-40 C.-4 wk [7]: 54.6 nM
EC50, cAMP, GLP-1 Receptor Assay; sample C6.5MT-4 C.-4 wk [7]: 55.6 nM
EC50, cAMP, GLP-1 Receptor Assay; sample C6.5MT-40 C.-4 wk [7]: 47.9 nM
EC50, cAMP, GIP Receptor Assay; sample T7-4 C.-4 wk [8]: > 100 nM
EC50, cAMP, GIP Receptor Assay; sample T7-40 C.-4 wk [8]: > 100 nM
EC50, cAMP, GIP Receptor Assay; sample T7m-4 C.-4 wk [8]: > 100 nM
EC50, cAMP, GIP Receptor Assay; sample T7m-40 C.-4 wk [8]: > 100 nM
EC50, cAMP, Gcg Receptor Assay; sample T7-4 C.-4 wk [9]: 0.0203 nM
EC50, cAMP, Gcg Receptor Assay; sample T7-40 C.-4 wk [9]: 0.0217 nM
EC50, cAMP, Gcg Receptor Assay; sample T7m-4 C.-4 wk [9]: 0.023 nM
EC50, cAMP, Gcg Receptor Assay; sample T7m-40 C.-4 wk [9]: 0.0194 nM
EC50, cAMP, GLP-1 Receptor Assay; sample T7-4 C.-4 wk [10]: > 100 nM
EC50, cAMP, GLP-1 Receptor Assay; sample T7-40 C.-4 wk [10]: 57.5 nM
EC50, cAMP, GLP-1 Receptor Assay; sample T7m-4 C.-4 wk [10]: 43.8 nM
EC50, cAMP, GLP-1 Receptor Assay; sample T7m-40 C.-4 wk [10]: 49.7 nM
EC50, intracellular cAMP (HTRF) [11]: > 500 nM
EC50, intracellular cAMP (HTRF) [12]: 0.00436 nM
EC50, intracellular cAMP (HTRF) [13]: 73.9 nM
Ki (rat glucagon receptor): 9.78 nM

B2: Example 2 (peptide)
peptide: B1 peptide
modifications: Aib at positions 2 and 16; K20 epsilon-amino group conjugated with ([2-(2-Amino-ethoxy)-ethoxy]-acetyl)2-(γGlu)2-CO-(CH2)18-CO2H; C-terminal primary amide
Ki [4]: 1.07 nM
Ki (mouse glucagon receptor): 0.991 nM
EC50, intracellular cAMP (HTRF) [11]: > 500 nM
EC50, intracellular cAMP (HTRF) [12]: 0.0112 nM
EC50, intracellular cAMP (HTRF) [13]: > 100 nM
Ki (rat glucagon receptor): 5.59 nM

B3: Example 3 (peptide)
peptide: B1 peptide with T7L
modifications: Aib at positions 2 and 16; K20 epsilon-amino group conjugated with ([2-(2-Amino-ethoxy)-ethoxy]-acetyl)2-(γGlu)2-CO-(CH2)16-CO2H; C-terminal primary amide
Ki [4]: 0.287 nM
Ki (mouse glucagon receptor): 0.174 nM
EC50, cAMP, GIP Receptor Assay; sample C6.5-4 C.-4 wk [5]: > 100 nM
EC50, cAMP, GIP Receptor Assay; sample C6.5-40 C.-4 wk [5]: > 100 nM
EC50, cAMP, GIP Receptor Assay; sample C6.5MT-4 C.-4 wk [5]: > 100 nM
EC50, cAMP, GIP Receptor Assay; sample C6.5MT-40 C.-4 wk [5]: > 100 nM
EC50, cAMP, Gcg Receptor Assay; sample C6.5-4 C.-4 wk [6]: 0.0369 nM
EC50, cAMP, Gcg Receptor Assay; sample C6.5-40 C.-4 wk [6]: 0.0257 nM
EC50, cAMP, Gcg Receptor Assay; sample C6.5MT-4 C.-4 wk [6]: 0.0193 nM
EC50, cAMP, Gcg Receptor Assay; sample C6.5MT-40 C.-4 wk [6]: 0.0214 nM
EC50, cAMP, GLP-1 Receptor Assay; sample C6.5-4 C.-4 wk [7]: > 100 nM
EC50, cAMP, GLP-1 Receptor Assay; sample C6.5-40 C.-4 wk [7]: > 100 nM
EC50, cAMP, GLP-1 Receptor Assay; sample C6.5MT-4 C.-4 wk [7]: > 100 nM
EC50, cAMP, GLP-1 Receptor Assay; sample C6.5MT-40 C.-4 wk [7]: > 100 nM
EC50, cAMP, GIP Receptor Assay; sample T7-4 C.-4 wk [8]: > 100 nM
EC50, cAMP, GIP Receptor Assay; sample T7-40 C.-4 wk [8]: > 100 nM
EC50, cAMP, GIP Receptor Assay; sample T7m-4 C.-4 wk [8]: > 100 nM
EC50, cAMP, GIP Receptor Assay; sample T7m-40 C.-4 wk [8]: > 100 nM
EC50, cAMP, Gcg Receptor Assay; sample T7-4 C.-4 wk [9]: 0.0143 nM
EC50, cAMP, Gcg Receptor Assay; sample T7-40 C.-4 wk [9]: 0.0249 nM
EC50, cAMP, Gcg Receptor Assay; sample T7m-4 C.-4 wk [9]: 0.0211 nM
EC50, cAMP, Gcg Receptor Assay; sample T7m-40 C.-4 wk [9]: 0.0211 nM
EC50, cAMP, GLP-1 Receptor Assay; sample T7-4 C.-4 wk [10]: > 100 nM
EC50, cAMP, GLP-1 Receptor Assay; sample T7-40 C.-4 wk [10]: > 100 nM
EC50, cAMP, GLP-1 Receptor Assay; sample T7m-4 C.-4 wk [10]: > 100 nM
EC50, cAMP, GLP-1 Receptor Assay; sample T7m-40 C.-4 wk [10]: > 100 nM
EC50, intracellular cAMP (HTRF) [11]: > 500 nM
EC50, intracellular cAMP (HTRF) [12]: 0.0034 nM
EC50, intracellular cAMP (HTRF) [13]: > 100 nM
Ki (rat glucagon receptor): 1.56 nM

B4: Example 6 (peptide)
peptide: YXQGTFTSDYSKYLDXKKAXEFVAWLLEE
modifications: Aib at positions 2 and 16; K20 epsilon-amino group conjugated with ([2-(2-Amino-ethoxy)-ethoxy]-acetyl)2-(γGlu)1-CO-(CH2)16-CO2H; C-terminal acid
Ki [4]: 0.316 nM
Ki (mouse glucagon receptor): 0.123 nM
EC50, intracellular cAMP (HTRF) [11]: > 500 nM
EC50, intracellular cAMP (HTRF) [12]: 0.00413 nM
EC50, intracellular cAMP (HTRF) [13]: > 100 nM
Ki (rat glucagon receptor): 0.98 nM

B5: Example 7 (peptide)
peptide: YXQGTFTSDYSKYLDXKKAXEFVAWLLEE
modifications: Aib at positions 2 and 16; K20 epsilon-amino group conjugated with ([2-(2-Amino-ethoxy)-ethoxy]-acetyl)2-(γGlu)1-CO-(CH2)18-CO2H; C-terminal acid
Ki [4]: 0.673 nM
Ki (mouse glucagon receptor): 0.753 nM
EC50, intracellular cAMP (HTRF) [11]: > 500 nM
EC50, intracellular cAMP (HTRF) [12]: 0.0166 nM
EC50, intracellular cAMP (HTRF) [13]: > 100 nM
Ki (rat glucagon receptor): 1.38 nM

YAEGTFISDYSIAMDKIHQQDFVNWLLAQKGKKNDWKHNITQ-NH2 [human GIP(1-42)NH2]
EC50, intracellular cAMP (HTRF) [12]: > 10 nM
